Measured values reported in US20260209386A1 (MYTHIC THERAPEUTICS, published 2026).
Substitutions are numbered along the chain they refer to.

T1: Human PTK7 Protein, His Tag (Acro Biosystems) (human, UniProt Q13308 31-704)
T1 construct: Bought His-tagged protein; also called CCK4; not shown: His tag
T1 sequence: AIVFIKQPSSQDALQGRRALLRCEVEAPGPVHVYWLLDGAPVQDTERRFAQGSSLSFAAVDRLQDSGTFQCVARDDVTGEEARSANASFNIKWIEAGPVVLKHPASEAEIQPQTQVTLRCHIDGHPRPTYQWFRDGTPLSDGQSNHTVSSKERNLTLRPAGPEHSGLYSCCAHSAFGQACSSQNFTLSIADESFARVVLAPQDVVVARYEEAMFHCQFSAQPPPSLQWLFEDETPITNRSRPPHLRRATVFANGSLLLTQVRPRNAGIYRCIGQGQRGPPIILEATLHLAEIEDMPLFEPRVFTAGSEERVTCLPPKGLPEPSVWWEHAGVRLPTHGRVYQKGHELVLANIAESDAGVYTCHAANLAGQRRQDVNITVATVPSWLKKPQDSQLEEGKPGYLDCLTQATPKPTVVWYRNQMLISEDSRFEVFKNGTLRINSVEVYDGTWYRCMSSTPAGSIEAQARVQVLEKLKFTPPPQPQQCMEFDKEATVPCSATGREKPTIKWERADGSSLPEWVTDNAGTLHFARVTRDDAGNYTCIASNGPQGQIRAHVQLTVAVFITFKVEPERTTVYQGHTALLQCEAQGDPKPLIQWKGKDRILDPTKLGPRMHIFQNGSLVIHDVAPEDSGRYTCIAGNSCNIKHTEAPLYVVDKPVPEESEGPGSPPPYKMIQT

T2: Human PTK7 (human, UniProt Q13308 31-1070)
T2 sequence: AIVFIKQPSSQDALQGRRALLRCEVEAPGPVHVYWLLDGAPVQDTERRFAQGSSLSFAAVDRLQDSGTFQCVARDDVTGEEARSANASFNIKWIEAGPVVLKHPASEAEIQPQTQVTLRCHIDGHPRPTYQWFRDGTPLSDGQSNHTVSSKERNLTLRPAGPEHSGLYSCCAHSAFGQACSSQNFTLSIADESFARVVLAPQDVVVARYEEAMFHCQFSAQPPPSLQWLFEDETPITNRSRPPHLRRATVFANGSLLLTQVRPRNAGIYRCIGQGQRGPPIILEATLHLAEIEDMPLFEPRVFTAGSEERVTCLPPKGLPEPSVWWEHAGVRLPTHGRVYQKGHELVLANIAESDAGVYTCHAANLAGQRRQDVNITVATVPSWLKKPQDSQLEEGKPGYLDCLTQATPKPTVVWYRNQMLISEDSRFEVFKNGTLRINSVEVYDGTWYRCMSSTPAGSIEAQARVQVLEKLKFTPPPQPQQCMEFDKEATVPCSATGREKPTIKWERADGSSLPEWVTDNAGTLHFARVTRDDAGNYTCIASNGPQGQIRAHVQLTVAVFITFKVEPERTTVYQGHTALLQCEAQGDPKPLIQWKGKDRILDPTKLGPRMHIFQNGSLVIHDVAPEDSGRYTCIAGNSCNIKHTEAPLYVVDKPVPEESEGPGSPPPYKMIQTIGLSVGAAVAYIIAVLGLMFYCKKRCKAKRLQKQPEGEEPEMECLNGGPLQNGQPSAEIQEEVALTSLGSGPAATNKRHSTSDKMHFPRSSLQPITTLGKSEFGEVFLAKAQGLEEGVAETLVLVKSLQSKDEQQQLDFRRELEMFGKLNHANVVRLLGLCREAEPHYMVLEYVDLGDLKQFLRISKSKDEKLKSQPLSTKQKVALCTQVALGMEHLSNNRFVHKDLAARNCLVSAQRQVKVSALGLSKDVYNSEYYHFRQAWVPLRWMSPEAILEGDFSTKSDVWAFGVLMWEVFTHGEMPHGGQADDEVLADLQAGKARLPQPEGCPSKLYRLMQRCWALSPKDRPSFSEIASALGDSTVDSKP

B1: MYT11027 (antibody, V domains shown)
VH: EVQLVESGGGLVQPGGSLRLSCTASHLSLSSYWMSWVRQAPGKGLEWVGVISAGGNTYYANWAKGRFTISRDTSKNTVYLQMNSLRAEDTAVYFCARGDDGYTNAAYVSNLWGQGTLVTVSS
VL: EIVMTQSPSTLSASVGDRVIITCQASQSISSWLSWYQQKPGKAPKLLIYKASTLASGVPSRFSGSGSGAEFTLTISSLQPDDFATYYCQSYFDSTTIAFGQGTKLTVL
notes: MYT9361 HC variant
B2: MYT11035 (antibody, V domains shown)
VH: B1 VH with H26G, M34H
VL: B1 VL
notes: MYT9361 HC variant
B3: MYT11032 (antibody, V domains shown)
VH: B1 VH with H26G, S31H
VL: B1 VL
notes: MYT9361 HC variant
B4: MYT11030 (antibody, V domains shown)
VH: B1 VH with H26G, L29H
VL: B1 VL
notes: MYT9361 HC variant
B5: MYT11029 (antibody, V domains shown)
VH: B1 VH with H26G, S28H
VL: B1 VL
notes: MYT9361 HC variant
B6: MYT11039 (antibody, V domains shown)
VH: B1 VH with H26G, S52H
VL: B1 VL
notes: MYT9361 HC variant
B7: MYT11043 (antibody, V domains shown)
VH: B1 VH with H26G, N56H
VL: B1 VL
notes: MYT9361 HC variant
B8: MYT11041 (antibody, V domains shown)
VH: B1 VH with H26G, G54H
VL: B1 VL
notes: MYT9361 HC variant
B9: MYT11044 (antibody, V domains shown)
VH: B1 VH with H26G, T57H
VL: B1 VL
notes: MYT9361 HC variant
B10: MYT11036 (antibody, V domains shown)
VH: B1 VH with H26G, S35H
VL: B1 VL
notes: MYT9361 HC variant
B11: MYT11037 (antibody, V domains shown)
VH: B1 VH with H26G, V50H
VL: B1 VL
notes: MYT9361 HC variant
B12: MYT11038 (antibody, V domains shown)
VH: B1 VH with H26G, I51H
VL: B1 VL
notes: MYT9361 HC variant
B13: MYT11040 (antibody, V domains shown)
VH: B1 VH with H26G, A53H
VL: B1 VL
notes: MYT9361 HC variant
B14: MYT11042 (antibody, V domains shown)
VH: B1 VH with H26G, G55H
VL: B1 VL
notes: MYT9361 HC variant
B15: MYT11031 (antibody, V domains shown)
VH: B1 VH with H26G, S30H
VL: B1 VL
notes: MYT9361 HC variant
B16: MYT11034 (antibody, V domains shown)
VH: B1 VH with H26G, W33H
VL: B1 VL
notes: MYT9361 HC variant
B17: MYT11028 (antibody, V domains shown)
VH: B1 VH with H26G, L27H
VL: B1 VL
notes: MYT9361 HC variant
B18: MYT11045 (antibody, V domains shown)
VH: B1 VH with H26G, Y58H
VL: B1 VL
notes: MYT9361 HC variant
B19: MYT11315 (antibody, V domains shown)
VH: EVQLVESGGGLVQPGGSLRLSCTASGIDLSRYSMGWVRQAPGKGLEWVGIISYGGSTYYASWAKGRFTISRDTSKNTVYLQMNSLRAEDTAVYFCARVGYPGYSGYGYAFDAFDPWGQGTLVTVSS
VL: EIVMTQSPSTLSASVGDRVIITCQSSKSVYNDNWHSWYQQKPGKAPKLLIYGASTLASGVPSRFSGSGSGAEFTLTISSLQPDDFATYYCAGGYSSSSDNGFGQGTKLTVL
B20: MYT11316 (antibody, V domains shown)
VH: B19 VH
VL: B19 VL with H35L, S36H
B21: MYT11332 (antibody, V domains shown)
VH: B19 VH
VL: B19 VL with H35L, D99H
B22: MYT11326 (antibody, V domains shown)
VH: B19 VH
VL: B19 VL with H35L, G93H
B23: MYT11324 (antibody, V domains shown)
VH: B19 VH
VL: B19 VL with H35L, A91H
B24: MYT11327 (antibody, V domains shown)
VH: B19 VH
VL: B19 VL with H35L, Y94H
B25: MYT11331 (antibody, V domains shown)
VH: B19 VH
VL: B19 VL with H35L, S98H
B26: MYT11328 (antibody, V domains shown)
VH: B19 VH
VL: B19 VL with H35L, S95H
B27: MYT11321 (antibody, V domains shown)
VH: B19 VH
VL: B19 VL with H35L, L56H
B28: MYT11337 (antibody, V domains shown)
VH: B19 VH
VL: B19 VL with H35L, D99A
B29: MYT11346 (antibody, V domains shown)
VH: EVQLVESGGGLVQPGGSLRLSCTASGIDLSNYHVIWVRQAPGKGLEWVGIIYTYDTTYYANWAKGRFTISRDTSKNTVYLQMNSLRAEDTAVYFCARSFSDISDLIKLWGQGTLVTVSS
VL: EIVMTQSPSTLSASVGDRVIITCQASQSLYNNKDLAWYQQKPGKAPKLLIYEASKLASGVPSRFSGSGSGAEFTLTISSLQPDDFATYYCLGEFSCGSGDCLAFGQGTKLTVL
B30: MYT11418 (antibody, V domains shown)
VH: B29 VH with H33A
VL: B29 VL with E52A

The binders below were run against T1, Human PTK7 Protein, His Tag (Acro …) (assay: BLI (Octet), antibody on anti-human Fc sensor, 50 nM PTK7; grade 2 = substantially similar binding relative to parent).

| binding result | Binder |
| --- | --- |
| binds | B1 |
| binds | B2 |
| binds | B3 |
| binds | B4 |
| binds | B5 |
| binds | B6 |
| binds | B7 |
| binds | B8 |
| binds | B9 |
| binds | B10 |
| binds | B11 |
| binds | B12 |
| binds | B13 |
| binds | B14 |
| binds | B15 |
| binds | B16 |
| binds | B17 |
| binds | B18 |

These binders were tested against T2, Human PTK7 (assay: cell-based or functional assay).

| Internalization, FOW @ 25 nM (fold over the wildtype, parental antibody) | Binder |
| --- | --- |
| 1.51 fold over parental antibody | B19 |
| 1.55 fold over parental antibody | B20 |
| 1.77 fold over parental antibody | B21 |
| 1.29 fold over parental antibody | B22 |
| 1.58 fold over parental antibody | B23 |
| 1.6 fold over parental antibody | B24 |
| 1.77 fold over parental antibody | B25 |
| 1.99 fold over parental antibody | B26 |
| 1.36 fold over parental antibody | B27 |
| 1.68 fold over parental antibody | B28 |
| 1.16 fold over parental antibody | B29 |
| 1.19 fold over parental antibody | B30 |
